{"source": "paper PMC11065122", "about": "(Journal of the American Chemical Society, 2023)", "key": {"PARP14^cat": {"tested_on": "PARP14^cat", "test": "PARP14cat mono-ADP-ribosylation of substrate peptides, RP-HPLC/MS", "assay_type": "biochemical", "settings": "after PARP14^cat reaction condition optimization, NAD+, listed as MP^B"}, "MP^A S7ADPr1": {"target": "MP^A S7ADPr1", "test": "fluorescence polarisation"}, "MP^A E9ADPr1": {"target": "MP^A E9ADPr1", "test": "fluorescence polarisation"}, "MP^(A (E9D)) D9ADPr1": {"target": "MP^(A (E9D)) D9ADPr1", "test": "fluorescence polarisation"}, "MP^A R5ADPr1": {"target": "MP^A R5ADPr1", "test": "fluorescence polarisation"}}}
{"substance": "GWTARKSAEVGAGK [MP^A]", "values": [{"measurement": "conversion to mono-ADP-ribosylated product (ADPr1)", "setting": "PARP14^cat", "value": "no activity was detected"}]}
{"substance": "pan-ADP-ribose detection reagent (an Af1521 macrodomain-Fc region fusion) (Fc fusion)", "values": [{"measurement": "Kd", "setting": "MP^A S7ADPr1", "value": 1170, "unit": "nM"}, {"measurement": "Kd", "setting": "MP^A E9ADPr1", "value": 732, "unit": "nM"}, {"measurement": "Kd", "setting": "MP^(A (E9D)) D9ADPr1", "value": 1810, "unit": "nM"}, {"measurement": "Kd", "setting": "MP^A R5ADPr1", "value": 15.6, "unit": "nM"}]}
